Target: T1, Human CD137 ECD (human)
T1 construct: entry includes C-terminal His-tag and biotin acceptor peptide; also called human CD137 extracellular domain; 4-1BB
Assay: Biacore SPR, vs parent H183/L072

T1 sequence (chain, as listed by the source limits assumed): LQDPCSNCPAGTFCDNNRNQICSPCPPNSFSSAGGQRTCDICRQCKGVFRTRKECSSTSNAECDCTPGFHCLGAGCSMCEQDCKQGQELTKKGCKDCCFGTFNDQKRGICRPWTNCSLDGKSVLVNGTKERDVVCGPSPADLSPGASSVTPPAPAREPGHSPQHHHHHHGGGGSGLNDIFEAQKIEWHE

Row | Binder | fold change of affinity [fold]
1 | H183/L072 VL T31E (antibody, name in Kabat numbering, V domains shown, Dual-Ig) VH: QVQLVESGGGLVQPGRSLRLSCAASGFTFSNAWMHWVRQAPGKGLEWVAQIKDKGNAYAAYYAPSVKGRFTISRDDSKNSIYLQMNSLKTEDTAVYYCHYVHYASASTVLPAFGVDAWGQGTTVTVSS VL: DIVMTQSPLSLPVTPGEPASISCQASQELVHMNRNEYLHWYQQKPGQAPRLLIYKVSNRFPGVPDRFSGSGSGTDFTLKISRVEAEDVGVYYCAQGTSVPFTFGQGTKLEIK | 0.4
2 | H183/L072 VL T31R (antibody, name in Kabat numbering, V domains shown, Dual-Ig) VH: QVQLVESGGGLVQPGRSLRLSCAASGFTFSNAWMHWVRQAPGKGLEWVAQIKDKGNAYAAYYAPSVKGRFTISRDDSKNSIYLQMNSLKTEDTAVYYCHYVHYASASTVLPAFGVDAWGQGTTVTVSS VL: DIVMTQSPLSLPVTPGEPASISCQASQELVHMNRNRYLHWYQQKPGQAPRLLIYKVSNRFPGVPDRFSGSGSGTDFTLKISRVEAEDVGVYYCAQGTSVPFTFGQGTKLEIK | 0.4
3 | H183/L072 VL T31V (antibody, name in Kabat numbering, V domains shown, Dual-Ig) VH: QVQLVESGGGLVQPGRSLRLSCAASGFTFSNAWMHWVRQAPGKGLEWVAQIKDKGNAYAAYYAPSVKGRFTISRDDSKNSIYLQMNSLKTEDTAVYYCHYVHYASASTVLPAFGVDAWGQGTTVTVSS VL: DIVMTQSPLSLPVTPGEPASISCQASQELVHMNRNVYLHWYQQKPGQAPRLLIYKVSNRFPGVPDRFSGSGSGTDFTLKISRVEAEDVGVYYCAQGTSVPFTFGQGTKLEIK | 1
4 | H183/L072 VL T31W (antibody, name in Kabat numbering, V domains shown, Dual-Ig) VH: QVQLVESGGGLVQPGRSLRLSCAASGFTFSNAWMHWVRQAPGKGLEWVAQIKDKGNAYAAYYAPSVKGRFTISRDDSKNSIYLQMNSLKTEDTAVYYCHYVHYASASTVLPAFGVDAWGQGTTVTVSS VL: DIVMTQSPLSLPVTPGEPASISCQASQELVHMNRNWYLHWYQQKPGQAPRLLIYKVSNRFPGVPDRFSGSGSGTDFTLKISRVEAEDVGVYYCAQGTSVPFTFGQGTKLEIK | 0.1
5 | H183/L072 VL T31S (antibody, name in Kabat numbering, V domains shown, Dual-Ig) VH: QVQLVESGGGLVQPGRSLRLSCAASGFTFSNAWMHWVRQAPGKGLEWVAQIKDKGNAYAAYYAPSVKGRFTISRDDSKNSIYLQMNSLKTEDTAVYYCHYVHYASASTVLPAFGVDAWGQGTTVTVSS VL: DIVMTQSPLSLPVTPGEPASISCQASQELVHMNRNSYLHWYQQKPGQAPRLLIYKVSNRFPGVPDRFSGSGSGTDFTLKISRVEAEDVGVYYCAQGTSVPFTFGQGTKLEIK | 0.4
6 | H183/L072 VL T31I (antibody, name in Kabat numbering, V domains shown, Dual-Ig) VH: QVQLVESGGGLVQPGRSLRLSCAASGFTFSNAWMHWVRQAPGKGLEWVAQIKDKGNAYAAYYAPSVKGRFTISRDDSKNSIYLQMNSLKTEDTAVYYCHYVHYASASTVLPAFGVDAWGQGTTVTVSS VL: DIVMTQSPLSLPVTPGEPASISCQASQELVHMNRNIYLHWYQQKPGQAPRLLIYKVSNRFPGVPDRFSGSGSGTDFTLKISRVEAEDVGVYYCAQGTSVPFTFGQGTKLEIK | 0.9
7 | H183/L072 VL T31P (antibody, name in Kabat numbering, V domains shown, Dual-Ig) VH: QVQLVESGGGLVQPGRSLRLSCAASGFTFSNAWMHWVRQAPGKGLEWVAQIKDKGNAYAAYYAPSVKGRFTISRDDSKNSIYLQMNSLKTEDTAVYYCHYVHYASASTVLPAFGVDAWGQGTTVTVSS VL: DIVMTQSPLSLPVTPGEPASISCQASQELVHMNRNPYLHWYQQKPGQAPRLLIYKVSNRFPGVPDRFSGSGSGTDFTLKISRVEAEDVGVYYCAQGTSVPFTFGQGTKLEIK | 0.4
8 | H183/L072 VL T31L (antibody, name in Kabat numbering, V domains shown, Dual-Ig) VH: QVQLVESGGGLVQPGRSLRLSCAASGFTFSNAWMHWVRQAPGKGLEWVAQIKDKGNAYAAYYAPSVKGRFTISRDDSKNSIYLQMNSLKTEDTAVYYCHYVHYASASTVLPAFGVDAWGQGTTVTVSS VL: DIVMTQSPLSLPVTPGEPASISCQASQELVHMNRNLYLHWYQQKPGQAPRLLIYKVSNRFPGVPDRFSGSGSGTDFTLKISRVEAEDVGVYYCAQGTSVPFTFGQGTKLEIK | 0.5
9 | H183/L072 VL T31K (antibody, name in Kabat numbering, V domains shown, Dual-Ig) VH: QVQLVESGGGLVQPGRSLRLSCAASGFTFSNAWMHWVRQAPGKGLEWVAQIKDKGNAYAAYYAPSVKGRFTISRDDSKNSIYLQMNSLKTEDTAVYYCHYVHYASASTVLPAFGVDAWGQGTTVTVSS VL: DIVMTQSPLSLPVTPGEPASISCQASQELVHMNRNKYLHWYQQKPGQAPRLLIYKVSNRFPGVPDRFSGSGSGTDFTLKISRVEAEDVGVYYCAQGTSVPFTFGQGTKLEIK | 0.4
10 | H183/L072 VL T31Q (antibody, name in Kabat numbering, V domains shown, Dual-Ig) VH: QVQLVESGGGLVQPGRSLRLSCAASGFTFSNAWMHWVRQAPGKGLEWVAQIKDKGNAYAAYYAPSVKGRFTISRDDSKNSIYLQMNSLKTEDTAVYYCHYVHYASASTVLPAFGVDAWGQGTTVTVSS VL: DIVMTQSPLSLPVTPGEPASISCQASQELVHMNRNQYLHWYQQKPGQAPRLLIYKVSNRFPGVPDRFSGSGSGTDFTLKISRVEAEDVGVYYCAQGTSVPFTFGQGTKLEIK | 0.5
11 | H183/L072 VL T31Y (antibody, name in Kabat numbering, V domains shown, Dual-Ig) VH: QVQLVESGGGLVQPGRSLRLSCAASGFTFSNAWMHWVRQAPGKGLEWVAQIKDKGNAYAAYYAPSVKGRFTISRDDSKNSIYLQMNSLKTEDTAVYYCHYVHYASASTVLPAFGVDAWGQGTTVTVSS VL: DIVMTQSPLSLPVTPGEPASISCQASQELVHMNRNYYLHWYQQKPGQAPRLLIYKVSNRFPGVPDRFSGSGSGTDFTLKISRVEAEDVGVYYCAQGTSVPFTFGQGTKLEIK | 0.1
12 | H183/L072 VL T31F (antibody, name in Kabat numbering, V domains shown, Dual-Ig) VH: QVQLVESGGGLVQPGRSLRLSCAASGFTFSNAWMHWVRQAPGKGLEWVAQIKDKGNAYAAYYAPSVKGRFTISRDDSKNSIYLQMNSLKTEDTAVYYCHYVHYASASTVLPAFGVDAWGQGTTVTVSS VL: DIVMTQSPLSLPVTPGEPASISCQASQELVHMNRNFYLHWYQQKPGQAPRLLIYKVSNRFPGVPDRFSGSGSGTDFTLKISRVEAEDVGVYYCAQGTSVPFTFGQGTKLEIK | 0.2
13 | H183/L072 VL T31M (antibody, name in Kabat numbering, V domains shown, Dual-Ig) VH: QVQLVESGGGLVQPGRSLRLSCAASGFTFSNAWMHWVRQAPGKGLEWVAQIKDKGNAYAAYYAPSVKGRFTISRDDSKNSIYLQMNSLKTEDTAVYYCHYVHYASASTVLPAFGVDAWGQGTTVTVSS VL: DIVMTQSPLSLPVTPGEPASISCQASQELVHMNRNMYLHWYQQKPGQAPRLLIYKVSNRFPGVPDRFSGSGSGTDFTLKISRVEAEDVGVYYCAQGTSVPFTFGQGTKLEIK | 0.3
14 | H183/L072 VL T92A (antibody, name in Kabat numbering, V domains shown, Dual-Ig) VH: QVQLVESGGGLVQPGRSLRLSCAASGFTFSNAWMHWVRQAPGKGLEWVAQIKDKGNAYAAYYAPSVKGRFTISRDDSKNSIYLQMNSLKTEDTAVYYCHYVHYASASTVLPAFGVDAWGQGTTVTVSS VL: DIVMTQSPLSLPVTPGEPASISCQASQELVHMNRNTYLHWYQQKPGQAPRLLIYKVSNRFPGVPDRFSGSGSGTDFTLKISRVEAEDVGVYYCAQGASVPFTFGQGTKLEIK | 0.5

Next, values leading:

Row | fold change of affinity [fold] | Binder
15 | 0 | H183/L072 VL T92H (antibody, name in Kabat numbering, V domains shown, Dual-Ig) VH: QVQLVESGGGLVQPGRSLRLSCAASGFTFSNAWMHWVRQAPGKGLEWVAQIKDKGNAYAAYYAPSVKGRFTISRDDSKNSIYLQMNSLKTEDTAVYYCHYVHYASASTVLPAFGVDAWGQGTTVTVSS VL: DIVMTQSPLSLPVTPGEPASISCQASQELVHMNRNTYLHWYQQKPGQAPRLLIYKVSNRFPGVPDRFSGSGSGTDFTLKISRVEAEDVGVYYCAQGHSVPFTFGQGTKLEIK
16 | 0.1 | H183/L072 VL T92I (antibody, name in Kabat numbering, V domains shown, Dual-Ig) VH: QVQLVESGGGLVQPGRSLRLSCAASGFTFSNAWMHWVRQAPGKGLEWVAQIKDKGNAYAAYYAPSVKGRFTISRDDSKNSIYLQMNSLKTEDTAVYYCHYVHYASASTVLPAFGVDAWGQGTTVTVSS VL: DIVMTQSPLSLPVTPGEPASISCQASQELVHMNRNTYLHWYQQKPGQAPRLLIYKVSNRFPGVPDRFSGSGSGTDFTLKISRVEAEDVGVYYCAQGISVPFTFGQGTKLEIK
17 | 0 | H183/L072 VL T92D (antibody, name in Kabat numbering, V domains shown, Dual-Ig) VH: QVQLVESGGGLVQPGRSLRLSCAASGFTFSNAWMHWVRQAPGKGLEWVAQIKDKGNAYAAYYAPSVKGRFTISRDDSKNSIYLQMNSLKTEDTAVYYCHYVHYASASTVLPAFGVDAWGQGTTVTVSS VL: DIVMTQSPLSLPVTPGEPASISCQASQELVHMNRNTYLHWYQQKPGQAPRLLIYKVSNRFPGVPDRFSGSGSGTDFTLKISRVEAEDVGVYYCAQGDSVPFTFGQGTKLEIK
18 | 0 | H183/L072 VL T92E (antibody, name in Kabat numbering, V domains shown, Dual-Ig) VH: QVQLVESGGGLVQPGRSLRLSCAASGFTFSNAWMHWVRQAPGKGLEWVAQIKDKGNAYAAYYAPSVKGRFTISRDDSKNSIYLQMNSLKTEDTAVYYCHYVHYASASTVLPAFGVDAWGQGTTVTVSS VL: DIVMTQSPLSLPVTPGEPASISCQASQELVHMNRNTYLHWYQQKPGQAPRLLIYKVSNRFPGVPDRFSGSGSGTDFTLKISRVEAEDVGVYYCAQGESVPFTFGQGTKLEIK
19 | 0 | H183/L072 VL T92K (antibody, name in Kabat numbering, V domains shown, Dual-Ig) VH: QVQLVESGGGLVQPGRSLRLSCAASGFTFSNAWMHWVRQAPGKGLEWVAQIKDKGNAYAAYYAPSVKGRFTISRDDSKNSIYLQMNSLKTEDTAVYYCHYVHYASASTVLPAFGVDAWGQGTTVTVSS VL: DIVMTQSPLSLPVTPGEPASISCQASQELVHMNRNTYLHWYQQKPGQAPRLLIYKVSNRFPGVPDRFSGSGSGTDFTLKISRVEAEDVGVYYCAQGKSVPFTFGQGTKLEIK
20 | 0.4 | H183/L072 VL T92G (antibody, name in Kabat numbering, V domains shown, Dual-Ig) VH: QVQLVESGGGLVQPGRSLRLSCAASGFTFSNAWMHWVRQAPGKGLEWVAQIKDKGNAYAAYYAPSVKGRFTISRDDSKNSIYLQMNSLKTEDTAVYYCHYVHYASASTVLPAFGVDAWGQGTTVTVSS VL: DIVMTQSPLSLPVTPGEPASISCQASQELVHMNRNTYLHWYQQKPGQAPRLLIYKVSNRFPGVPDRFSGSGSGTDFTLKISRVEAEDVGVYYCAQGGSVPFTFGQGTKLEIK
21 | 0 | H183/L072 VL T92F (antibody, name in Kabat numbering, V domains shown, Dual-Ig) VH: QVQLVESGGGLVQPGRSLRLSCAASGFTFSNAWMHWVRQAPGKGLEWVAQIKDKGNAYAAYYAPSVKGRFTISRDDSKNSIYLQMNSLKTEDTAVYYCHYVHYASASTVLPAFGVDAWGQGTTVTVSS VL: DIVMTQSPLSLPVTPGEPASISCQASQELVHMNRNTYLHWYQQKPGQAPRLLIYKVSNRFPGVPDRFSGSGSGTDFTLKISRVEAEDVGVYYCAQGFSVPFTFGQGTKLEIK

Source: patent US20210388087A1 (Chugai, published 2021)
